Reference: paper PMC9482650, “Quantitative fragmentomics allow affinity mapping of interactomes” (Nature Communications, 2022)

T1: APBA1_1, Q02410
T1 sequence (Q02410 651-752, limits assumed, looked up): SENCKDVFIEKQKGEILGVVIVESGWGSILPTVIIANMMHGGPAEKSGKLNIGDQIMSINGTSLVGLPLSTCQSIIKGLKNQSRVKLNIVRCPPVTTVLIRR

T2: ARHGEF11, O15085
T2 sequence (O15085 42-136, limits assumed, looked up): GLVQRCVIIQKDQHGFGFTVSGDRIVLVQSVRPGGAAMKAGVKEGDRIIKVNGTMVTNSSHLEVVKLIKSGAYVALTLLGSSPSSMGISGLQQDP

T3: DLG3_2, Q92796
T3 sequence (Q92796 221-321, limits assumed, looked up): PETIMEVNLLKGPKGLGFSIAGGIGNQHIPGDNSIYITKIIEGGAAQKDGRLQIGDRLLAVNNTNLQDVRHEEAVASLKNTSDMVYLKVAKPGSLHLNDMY

T4: FRMPD1, Q5SYB0
T4 sequence (Q5SYB0 52-145, limits assumed, looked up): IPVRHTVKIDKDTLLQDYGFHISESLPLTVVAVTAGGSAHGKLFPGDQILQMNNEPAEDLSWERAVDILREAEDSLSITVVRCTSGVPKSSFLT

T5: HTRA3, P83110
T5 sequence (P83110 354-453, limits assumed, looked up): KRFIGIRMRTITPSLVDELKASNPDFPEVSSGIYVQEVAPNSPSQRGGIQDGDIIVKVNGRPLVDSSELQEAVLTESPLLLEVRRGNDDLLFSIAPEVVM

T6: LIN7B, Q9HAP6
T6 sequence (Q9HAP6 88-185, limits assumed, looked up): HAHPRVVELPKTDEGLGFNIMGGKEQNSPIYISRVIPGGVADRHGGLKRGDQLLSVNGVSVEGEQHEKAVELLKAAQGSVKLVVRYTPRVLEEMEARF

T7: NHERF3_3, Q5T2W1
T7 sequence (Q5T2W1 238-333, limits assumed, looked up): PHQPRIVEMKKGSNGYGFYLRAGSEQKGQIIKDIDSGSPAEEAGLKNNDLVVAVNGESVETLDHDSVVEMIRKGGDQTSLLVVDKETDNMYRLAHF

T8: RHPN1, Q8TCX5
T8 sequence (Q8TCX5 508-602, limits assumed, looked up): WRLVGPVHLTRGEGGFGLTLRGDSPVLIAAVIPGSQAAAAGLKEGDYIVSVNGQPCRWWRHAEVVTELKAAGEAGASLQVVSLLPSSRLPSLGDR

T9: SNTA1, Q13424
T9 sequence (Q13424 82-180, limits assumed, looked up): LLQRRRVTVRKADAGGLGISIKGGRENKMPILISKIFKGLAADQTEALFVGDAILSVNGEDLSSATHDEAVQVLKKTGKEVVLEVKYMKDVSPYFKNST


Tests used:
Assay in all cases: holdup assay
Design in all cases: key: below the threshold = too weak to quantify, mostly under pKd 3.1 to 4
Details in all cases: plain residues with an end cap or a label only (N-terminal biotin on a linker: ado-ado)
APBA1_1, Q02410 = target: T1, APBA1_1, Q02410
ARHGEF11, O15085 = target: T2, ARHGEF11, O15085
DLG3_2, Q92796 = target: T3, DLG3_2, Q92796
DLG4_2, P78352 = target: DLG4_2, P78352
FRMPD1, Q5SYB0 = target: T4, FRMPD1, Q5SYB0
FRMPD2_1, Q68DX3 = target: FRMPD2_1, Q68DX3
FRMPD2_3, Q68DX3 = target: FRMPD2_3, Q68DX3
GIPC2, Q8TF65 = target: GIPC2, Q8TF65
GOPC, Q9HD26 = target: GOPC, Q9HD26
GORASP1, Q9BQQ3 = target: GORASP1, Q9BQQ3
HTRA3, P83110 = target: T5, HTRA3, P83110
Inadl_1, Q8NI35 = target: Inadl_1, Q8NI35
Inadl_10, Q8NI35 = target: Inadl_10, Q8NI35
Inadl_4, Q8NI35 = target: Inadl_4, Q8NI35
Inadl_6, Q8NI35 = target: Inadl_6, Q8NI35
Inadl_8, Q8NI35 = target: Inadl_8, Q8NI35
LIN7B, Q9HAP6 = target: T6, LIN7B, Q9HAP6
LNX1_2, Q8TBB1 = target: LNX1_2, Q8TBB1
LNX1_3, Q8TBB1 = target: LNX1_3, Q8TBB1
MAGI1_2, Q96QZ7 = target: MAGI1_2, Q96QZ7
MAGI2_3, Q86UL8 = target: MAGI2_3, Q86UL8
MAGI3_2, Q5TCQ9 = target: MAGI3_2, Q5TCQ9
MAST2, Q6P0Q8 = target: MAST2, Q6P0Q8
NHERF3_3, Q5T2W1 = target: T7, NHERF3_3, Q5T2W1
NHERF4_4, Q86UT5 = target: NHERF4_4, Q86UT5
PARD3_3, Q8TEW0 = target: PARD3_3, Q8TEW0
RHPN1, Q8TCX5 = target: T8, RHPN1, Q8TCX5
SNTA1, Q13424 = target: T9, SNTA1, Q13424

Chain of Inadl_6, Q8NI35 (Q8NI35 1058-1167): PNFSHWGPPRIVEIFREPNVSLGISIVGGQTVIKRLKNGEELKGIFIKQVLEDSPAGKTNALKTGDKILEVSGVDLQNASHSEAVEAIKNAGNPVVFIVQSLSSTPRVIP
Chain of MAST2, Q6P0Q8 (Q6P0Q8 1099-1202): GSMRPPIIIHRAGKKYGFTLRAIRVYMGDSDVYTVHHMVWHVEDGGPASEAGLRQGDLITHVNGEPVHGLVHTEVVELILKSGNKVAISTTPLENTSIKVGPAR
Chain of Inadl_4, Q8NI35 (Q8NI35 547-651): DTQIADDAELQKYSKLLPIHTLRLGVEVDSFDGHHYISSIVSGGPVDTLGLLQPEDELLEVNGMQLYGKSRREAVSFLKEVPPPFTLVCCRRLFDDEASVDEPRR
Chain of MAGI3_2, Q5TCQ9 (Q5TCQ9 398-503): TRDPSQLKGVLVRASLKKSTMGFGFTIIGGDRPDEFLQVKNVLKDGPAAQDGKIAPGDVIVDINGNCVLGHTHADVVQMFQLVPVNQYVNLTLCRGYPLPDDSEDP
Chain of MAGI2_3, Q86UL8 (Q86UL8 600-682): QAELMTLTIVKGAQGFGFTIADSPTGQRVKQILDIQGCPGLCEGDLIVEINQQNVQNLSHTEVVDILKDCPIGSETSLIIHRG
Chain of MAGI1_2, Q96QZ7 (Q96QZ7 456-580): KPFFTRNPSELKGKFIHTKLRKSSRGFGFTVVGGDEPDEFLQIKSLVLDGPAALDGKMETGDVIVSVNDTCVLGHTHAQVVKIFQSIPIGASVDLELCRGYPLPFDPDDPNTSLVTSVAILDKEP
Chain of LNX1_3, Q8TBB1 (Q8TBB1 500-596): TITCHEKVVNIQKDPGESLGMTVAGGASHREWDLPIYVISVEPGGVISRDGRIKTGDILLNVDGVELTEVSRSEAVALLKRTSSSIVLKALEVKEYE
Chain of FRMPD2_3, Q68DX3 (Q68DX3 1073-1166): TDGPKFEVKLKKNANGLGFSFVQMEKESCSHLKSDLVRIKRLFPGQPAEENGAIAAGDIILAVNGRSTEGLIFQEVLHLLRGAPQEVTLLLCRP
Chain of GORASP1, Q9BQQ3 (Q9BQQ3 1-208): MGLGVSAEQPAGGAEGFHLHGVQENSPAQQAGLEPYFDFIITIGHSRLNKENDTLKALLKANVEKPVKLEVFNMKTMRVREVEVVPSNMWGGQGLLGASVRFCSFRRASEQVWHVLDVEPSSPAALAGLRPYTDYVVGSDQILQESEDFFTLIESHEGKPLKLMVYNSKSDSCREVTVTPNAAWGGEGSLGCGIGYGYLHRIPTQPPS
Chain of LNX1_2, Q8TBB1 (Q8TBB1 371-470): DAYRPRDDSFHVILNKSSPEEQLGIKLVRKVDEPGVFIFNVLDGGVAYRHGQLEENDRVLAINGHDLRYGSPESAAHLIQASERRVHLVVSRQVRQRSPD
Chain of FRMPD2_1, Q68DX3 (Q68DX3 770-861): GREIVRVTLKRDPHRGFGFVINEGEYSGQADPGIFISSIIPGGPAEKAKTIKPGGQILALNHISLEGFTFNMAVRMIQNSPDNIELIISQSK
Chain of Inadl_10, Q8NI35 (Q8NI35 1673-1763): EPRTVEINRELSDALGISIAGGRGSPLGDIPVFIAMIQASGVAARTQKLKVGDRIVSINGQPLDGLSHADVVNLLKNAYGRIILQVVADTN
Chain of NHERF4_4, Q86UT5 (Q86UT5 464-550): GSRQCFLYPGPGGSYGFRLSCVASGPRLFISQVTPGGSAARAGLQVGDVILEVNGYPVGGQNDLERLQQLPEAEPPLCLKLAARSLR
Chain of Inadl_1, Q8NI35 (Q8NI35 113-229): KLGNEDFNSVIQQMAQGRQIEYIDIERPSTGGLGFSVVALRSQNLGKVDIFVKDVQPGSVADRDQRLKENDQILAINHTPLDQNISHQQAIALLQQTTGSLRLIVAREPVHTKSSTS
Chain of DLG4_2, P78352 (P78352 155-259): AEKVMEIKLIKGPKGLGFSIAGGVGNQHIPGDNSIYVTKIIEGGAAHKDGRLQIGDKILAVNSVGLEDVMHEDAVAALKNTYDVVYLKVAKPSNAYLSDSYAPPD
Chain of GIPC2, Q8TF65 (Q8TF65 112-203): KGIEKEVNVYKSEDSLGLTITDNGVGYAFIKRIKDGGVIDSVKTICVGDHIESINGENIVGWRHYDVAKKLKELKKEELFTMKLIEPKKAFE
Chain of Inadl_8, Q8NI35 (Q8NI35 1425-1530): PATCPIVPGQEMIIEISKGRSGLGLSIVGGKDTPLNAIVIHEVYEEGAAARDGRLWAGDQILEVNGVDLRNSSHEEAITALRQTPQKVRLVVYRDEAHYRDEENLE
Chain of PARD3_3, Q8TEW0 (Q8TEW0 582-685): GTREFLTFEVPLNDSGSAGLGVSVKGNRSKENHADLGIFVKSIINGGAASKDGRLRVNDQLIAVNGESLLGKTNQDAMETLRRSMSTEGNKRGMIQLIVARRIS

| Binder | pKd (APBA1_1, Q02410) | pKd (ARHGEF11, O15085) | pKd (DLG3_2, Q92796) | pKd (DLG4_2, P78352) | pKd (FRMPD1, Q5SYB0) | pKd (FRMPD2_1, Q68DX3) | pKd (FRMPD2_3, Q68DX3) | pKd (GIPC2, Q8TF65) | pKd (GOPC, Q9HD26) | pKd (GORASP1, Q9BQQ3) | pKd (HTRA3, P83110) | pKd (Inadl_1, Q8NI35) | pKd (Inadl_10, Q8NI35) | pKd (Inadl_4, Q8NI35) | pKd (Inadl_6, Q8NI35) | pKd (Inadl_8, Q8NI35) | pKd (LIN7B, Q9HAP6) | pKd (LNX1_2, Q8TBB1) | pKd (LNX1_3, Q8TBB1) | pKd (MAGI1_2, Q96QZ7) | further results |
| --- | --- | --- | --- | --- | --- | --- | --- | --- | --- | --- | --- | --- | --- | --- | --- | --- | --- | --- | --- | --- | --- |
| VKPQVSESKL [ACOT8, O14734] | below the threshold | below the threshold | 4.17 | below the threshold | below the threshold | below the threshold | below the threshold | below the threshold | 3.51 | below the threshold | below the threshold | below the threshold | below the threshold | below the threshold | below the threshold | below the threshold | 3.59 | below the threshold | below the threshold | below the threshold | pKd (MAGI2_3, Q86UL8): below the threshold; pKd (MAGI3_2, Q5TCQ9): 3.59; pKd (MAST2, Q6P0Q8): 5.52; pKd (NHERF3_3, Q5T2W1): below the threshold; pKd (NHERF4_4, Q86UT5): below the threshold; pKd (PARD3_3, Q8TEW0): below the threshold; pKd (RHPN1, Q8TCX5): 4.07; pKd (SNTA1, Q13424): below the threshold |
| PRAEAEDSFL [PDGFRB, P09619] | 3.68 | 3.78 | below the threshold | 3.48 | below the threshold | below the threshold | 3.51 | 3.8 | below the threshold | 3.57 | below the threshold | below the threshold | below the threshold | below the threshold | 3.81 | below the threshold | below the threshold | below the threshold | below the threshold | below the threshold | pKd (MAGI2_3, Q86UL8): 3.55; pKd (MAGI3_2, Q5TCQ9): below the threshold; pKd (MAST2, Q6P0Q8): 5.62; pKd (NHERF3_3, Q5T2W1): below the threshold; pKd (NHERF4_4, Q86UT5): 4.03; pKd (PARD3_3, Q8TEW0): 4.11; pKd (RHPN1, Q8TCX5): 4.23; pKd (SNTA1, Q13424): 3.59 |
